Test results taken from patent US12291578B2, “Anti-matrix metalloproteinase 7 (MMP-7) inhibitory antibody and uses thereof” (Yeda Research and Development Co. Ltd., priority 2019, dated 2025).
“Also recorded” adds a separate entry of the source.

Tests used:
CFPAC-1 cells = test: Trans-well migration assay; format: cell-based, human; settings: 15 h post treatment, sub-lethal concentrations
Protocol: Trans-well migration assay: Cells were starved overnight in assay media (IMDM media containing only 1% serum). Cells (1×10^5) were added to the top chambers of 24-well transwell plates (BD Biosciences; 8 μm pore size), and assay media, with or without GSM-192, was added to both chambers. […] The numbers of cells in five fields were counted under 20× magnification, and the mean for each chamber determined.
GSM-192 Fab reduces cell motility in vitro: MMP-7 mediated E-Cadherin cleavage promotes cell migration^19, so it was hypothesized that an effective anti MMP-7 antibody directed to the activated enzyme should be able to impact migration.

MMP-12 = MMP-12 (Homo sapiens, UniProt P39900); test: Enzymatic activity of related MMPs (fluorogenic peptide); format: biochemical; settings: in vitro
Protocol: (§1) MMP-7 enzymatic kinetic assay: The enzymatic activity of MMP-7 in the presence of GSM-192 Fab was measured at 37° C. by monitoring the hydrolysis of fluorogenic peptide Mca-Pro-Leu-Gly-Leu-Dpa-Ala-Arg-NH2 (SEQ ID NO: 10) at λex=340 nm and […] as described previously^30. A range of different concentrations of GSM-192 Fab (0-200 nM) were incubated with 10 nM of MMP-7 in 50 mM Tris-HCl buffer (pH 7.5 at 37° C.), 100 mM NaCl, 5 mM CaCl2, and 0.05% Brij-35 for 2 h at 37° C. The enzymatic reaction was initiated by addition of the fluorogenic peptide to a final concentration of 10 μM. Fluorescence was recorded immediately and continuously for 30 min.
(§2) Remarkably, considering that the immunization booster also included the common zinc motif, the antibody is fully selective for MMP-7. The effect of GSM-192 Fab fragment on the enzymatic activity of human MMP-7 was examined in vitro using a short fluorogenic peptide according to a standard protocol. The enzymatic activity of recombinant active MMP-7 was measured in the presence of increasing concentrations of the Fab fragment of GSM-192. […] Simultaneously the effect of the antibody on catalytic activity of related MMPs was measured.

MMP-14 = MMP-14 (Homo sapiens, UniProt P50281); test: as above; format: biochemical; settings: in vitro
Protocol: as §1, §2

MMP-9 = MMP-9 (Homo sapiens, UniProt P14780); test: as above; format: biochemical; settings: in vitro
Protocol: as §1, §2

MMP-9, sequence (P14780 94-707, species assumed): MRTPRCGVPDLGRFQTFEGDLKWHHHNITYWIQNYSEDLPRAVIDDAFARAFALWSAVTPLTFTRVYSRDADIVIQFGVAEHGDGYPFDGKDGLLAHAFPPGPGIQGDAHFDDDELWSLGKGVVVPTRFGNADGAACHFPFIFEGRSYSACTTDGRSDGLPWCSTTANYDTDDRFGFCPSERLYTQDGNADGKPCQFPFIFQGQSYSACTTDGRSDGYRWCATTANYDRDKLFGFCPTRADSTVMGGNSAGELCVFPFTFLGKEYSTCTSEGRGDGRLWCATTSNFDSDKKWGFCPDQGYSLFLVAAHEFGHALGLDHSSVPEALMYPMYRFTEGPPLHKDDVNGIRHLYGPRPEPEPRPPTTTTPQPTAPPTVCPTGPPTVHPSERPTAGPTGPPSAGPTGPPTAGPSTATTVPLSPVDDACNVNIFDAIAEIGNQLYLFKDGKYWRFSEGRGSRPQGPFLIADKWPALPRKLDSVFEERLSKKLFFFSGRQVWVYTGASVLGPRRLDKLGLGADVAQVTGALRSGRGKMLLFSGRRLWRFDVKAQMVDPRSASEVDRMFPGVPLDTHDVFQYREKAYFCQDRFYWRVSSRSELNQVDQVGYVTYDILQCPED
MMP-12, sequence (P39900 106-470): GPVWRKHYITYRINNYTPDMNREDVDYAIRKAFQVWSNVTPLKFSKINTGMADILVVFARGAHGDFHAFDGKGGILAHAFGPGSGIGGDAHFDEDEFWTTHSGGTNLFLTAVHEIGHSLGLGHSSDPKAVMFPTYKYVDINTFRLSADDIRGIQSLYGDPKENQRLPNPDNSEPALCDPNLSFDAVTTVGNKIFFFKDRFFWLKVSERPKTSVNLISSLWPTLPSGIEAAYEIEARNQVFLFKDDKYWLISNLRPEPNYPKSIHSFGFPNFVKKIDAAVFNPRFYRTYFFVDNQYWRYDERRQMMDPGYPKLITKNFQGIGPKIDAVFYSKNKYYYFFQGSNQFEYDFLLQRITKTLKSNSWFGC

B1: GSM-192: monoclonal antibody to MMP-7 binding the catalytic domain, not the zymogen; VL SEQ ID NO: 1, VH SEQ ID NO: 2 (antibody, V domains shown)
VH: EVQLQQSGPELVKPGASVKIPCKASGYTFTDYNMDWMKQSHGKSLEWIGHINPNNGGTFYNQKFKDKATFIVDKSSNTAYMELRSLTSEDTAVYFCARGGGLRRGPFAYWGQGTLVTVS
VL: DIVTQSPASLAVSLGQRATISCRASESFDSYGNTFVHWYQQKPGQPPKLLIYLVSNLESGVPAGFRGRGSRTDFTLTIDPVEADDAATYYCQQNNEDPYTFGGGTKLEIKRA
modifications: GSM-192 Heavy Chain Sequence; GSM-192 Light Chain Sequence
For B1, the “cells migrating across the transwell membrane” value (CFPAC-1 cells) was “almost by half; also recorded: reduces cells migrating across the transwell membrane significantly”, the “effect on catalytic activity of MMP-12” value (MMP-12) was “negligible or no effect” and the “effect on catalytic activity of MMP-14” value (MMP-14) was “negligible or no effect”. For the same molecule, the “effect on catalytic activity of MMP-9” value (MMP-9) was “negligible or no effect”.
